Experimental data as given in article PMC9028814.

Biological target: Acid-solubilized type I bovine collagen (bovine) (UniProt P02453)
Experiment: SPR

Chain of UniProt P02453 (P02453 162-1217, chain 1 of 2): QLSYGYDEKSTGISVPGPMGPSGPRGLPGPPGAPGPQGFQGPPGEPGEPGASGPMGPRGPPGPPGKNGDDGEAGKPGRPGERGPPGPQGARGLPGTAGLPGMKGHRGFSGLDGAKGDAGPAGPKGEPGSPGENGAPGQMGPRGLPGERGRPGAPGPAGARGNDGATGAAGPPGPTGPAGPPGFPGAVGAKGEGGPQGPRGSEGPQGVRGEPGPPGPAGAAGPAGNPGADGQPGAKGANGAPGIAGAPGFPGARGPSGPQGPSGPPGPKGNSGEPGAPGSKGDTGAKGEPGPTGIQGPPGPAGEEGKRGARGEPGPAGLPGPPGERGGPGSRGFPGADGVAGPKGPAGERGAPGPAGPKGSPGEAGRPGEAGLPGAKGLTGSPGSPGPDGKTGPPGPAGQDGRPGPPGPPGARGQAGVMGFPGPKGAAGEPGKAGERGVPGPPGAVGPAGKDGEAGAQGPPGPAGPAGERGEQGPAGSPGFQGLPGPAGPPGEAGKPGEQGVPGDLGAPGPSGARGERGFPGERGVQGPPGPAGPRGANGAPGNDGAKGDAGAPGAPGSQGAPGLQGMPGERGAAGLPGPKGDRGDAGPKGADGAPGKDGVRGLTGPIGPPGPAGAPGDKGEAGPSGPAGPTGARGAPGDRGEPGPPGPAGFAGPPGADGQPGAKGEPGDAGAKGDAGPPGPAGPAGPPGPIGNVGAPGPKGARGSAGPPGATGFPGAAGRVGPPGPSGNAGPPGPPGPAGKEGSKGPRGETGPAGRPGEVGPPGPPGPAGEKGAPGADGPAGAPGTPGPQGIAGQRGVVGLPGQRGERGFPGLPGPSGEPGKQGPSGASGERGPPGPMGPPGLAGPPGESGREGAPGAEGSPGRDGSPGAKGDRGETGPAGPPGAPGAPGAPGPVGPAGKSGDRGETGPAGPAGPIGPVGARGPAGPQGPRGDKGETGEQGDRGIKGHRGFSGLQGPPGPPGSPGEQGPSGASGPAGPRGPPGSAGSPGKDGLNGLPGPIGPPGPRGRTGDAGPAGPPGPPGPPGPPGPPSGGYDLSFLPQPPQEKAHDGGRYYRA
Chain of UniProt P02453 (P02465 80-1117, chain 2 of 2, further chain): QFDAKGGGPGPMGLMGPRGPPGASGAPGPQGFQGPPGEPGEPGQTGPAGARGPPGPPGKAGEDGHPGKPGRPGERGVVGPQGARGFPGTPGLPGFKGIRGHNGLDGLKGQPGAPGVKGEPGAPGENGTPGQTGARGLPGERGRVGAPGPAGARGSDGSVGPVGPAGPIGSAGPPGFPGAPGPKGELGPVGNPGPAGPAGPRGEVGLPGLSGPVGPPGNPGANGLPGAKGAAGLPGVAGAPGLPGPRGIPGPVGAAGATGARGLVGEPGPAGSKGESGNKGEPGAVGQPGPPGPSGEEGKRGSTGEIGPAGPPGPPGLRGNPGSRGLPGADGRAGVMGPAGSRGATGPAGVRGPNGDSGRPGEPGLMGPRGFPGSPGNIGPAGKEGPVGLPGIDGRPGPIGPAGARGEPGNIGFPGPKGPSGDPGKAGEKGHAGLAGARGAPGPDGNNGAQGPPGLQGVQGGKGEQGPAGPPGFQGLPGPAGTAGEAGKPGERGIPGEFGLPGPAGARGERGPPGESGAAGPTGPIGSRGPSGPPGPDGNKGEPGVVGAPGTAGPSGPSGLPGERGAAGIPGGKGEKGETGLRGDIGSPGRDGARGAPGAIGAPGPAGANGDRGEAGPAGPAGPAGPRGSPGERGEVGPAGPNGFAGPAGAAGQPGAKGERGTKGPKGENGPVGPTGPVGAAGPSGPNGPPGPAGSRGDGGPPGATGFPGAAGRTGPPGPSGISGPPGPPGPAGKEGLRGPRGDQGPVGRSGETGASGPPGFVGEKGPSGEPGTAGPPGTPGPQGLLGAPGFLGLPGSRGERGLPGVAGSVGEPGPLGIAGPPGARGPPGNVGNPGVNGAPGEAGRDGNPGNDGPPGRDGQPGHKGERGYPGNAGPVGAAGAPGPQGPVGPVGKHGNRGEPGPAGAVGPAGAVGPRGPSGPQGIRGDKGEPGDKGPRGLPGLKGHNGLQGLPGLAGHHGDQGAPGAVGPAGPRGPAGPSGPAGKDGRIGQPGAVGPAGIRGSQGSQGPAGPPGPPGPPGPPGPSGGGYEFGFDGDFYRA

Row | koff | kon | Substance
1 | 0.00073 s⁻¹ |  | Human plasma von Willebrand factor (from UniProt P04275 764-2813) (natural protein)
2 | 0.000932 s⁻¹ | 2.36e+06 M⁻¹ s⁻¹ | Recombinant wild type von Willebrand factor (from UniProt P04275 764-2813) (natural protein)
